From US20240270826A1 (NATIONAL RESEARCH COUNCIL OF CANADA, published 2024) come the findings set out here.

The chains are these.
B1: NRCoV2-S2B3 VHH-Fc (Fc fusion)
chain: QVQLVDSGGGLVQAGGSLRLSCAASASTFGDSAMGYYRQAPGKQRELVATISTGSNTNYADSVKGRFTISRDDAKNTVYLQMNSLKPEDTAVYYCNYRSIYYGQNFWGQGTQVTVSS
notes: bivalent VHH-Fc
B2: NRCoV2-15 VHH-Fc (Fc fusion)
chain: EVQLVSSGGGLVEAGGSLRLSCIASGSTSGRNTMGWFRQAPGKQREWVAIVSTSGATNYAGSVKGRFTLSRDNAKNAVYLQMNNLKPEDTAVYYCYAAYGGGGDYWGQGTQVTVSS
notes: bivalent VHH-Fc
B3: NRCoV2-MRed11 VHH-Fc (Fc fusion)
chain: EVQLVESGGGLVQAGGSLRLSCAASGFTFSSYAMSWHRQAPGKGLEWVSAINSGGGSTSYADSVKGRFAISRDNAKNTLYLQMNSLKPEDTAVYYCATTISDGSSWSTKSYRGQGTQVTVSS
notes: bivalent VHH-Fc
B4: NRCoV2-SR03 VHH-Fc (Fc fusion)
chain: AVQLVDSGGGLVQAGGSLRLSCAASGSIFSNNHMGWYRQAPGKQRELVAAISSGGKTNYADFAKGRFTISRDNAKNMVYLQMNSLKPEDTAVYYCNRGGWEYRSSYYIMGPHWGQGTQVTVSS
notes: bivalent VHH-Fc
B5: NRCoV2-21 VHH-Fc (Fc fusion)
chain: EVQLVESGGGLVQPGGSLRLSCATSGFTLDYYAIGWFRQAPGKEREWVSCISSGGSTFYVDSVKGRFTISRDNAKDTVYLQMSSLKPDDTAVYYCAADHRGRSLRFGCSSSTTDYLYWGQGTQVTVSS
notes: bivalent VHH-Fc
B6: NRCoV2-SR04 VHH-Fc (Fc fusion)
chain: QVQLVESGGGLVQAGGSLRLSCAASGRTFSSHTVGWYRQAPGKQRDLVAAISMGGNTNYADYADSVKGRFTISRDNAKNTLYLQMNSLKPEDTAVYYCNTAALVGNRLLPMATITWGQGTQVTVSS
notes: bivalent VHH-Fc
B7: NRCoV2-17 VHH-Fc (Fc fusion)
chain: EVQLQQSGGGLVQTGGSLRLSCAAAGSPFSQLAMSWYRQISGKERAWVASISPTGNRSYSKIAKGRFTISRDNAKNTVTLQMTSLKPEDTAAYICQAANVNGGDYWGQGTQVTVSS
notes: bivalent VHH-Fc
B8: NRCoV2-S2G4 VHH-Fc (Fc fusion)
chain: QVQLVQSGGGLVQAGGSLTLSCAPSGSTFSGYATNWYRQAPGKQRELVATISSDGDKNYADSVKGRFTISRDNAKNTVYLQMNSLKPEDTAVYYCNKHWWTGDWWGQGTQVTVSS
notes: bivalent VHH-Fc
B9: NRCoV2-MRed22 VHH-Fc (Fc fusion)
chain: EVQLVESGGGLVQPGGSLRLSCAASGSVFASNAMGWYRQAPGKQRELVATISSRGSTNYADSVKGRFTISRDNAKNTVYLQMNSLGPEDTAVYYCNAREFTGFDYWGQGTQVTVSS
notes: bivalent VHH-Fc
B10: NRCoV2-SR16 VHH-Fc (Fc fusion)
chain: QVQLVQSAGGLVQAGGSLRLSCVVSGTTFSRYHMGWHRQAPGKQRDFVAGISTSGAVTYADSAKGRFTISRDNAKNTVYLEMNSLKLEDTALYYCNTGGWDYRSSTFIMGLNWGQGTQVTVSS
notes: bivalent
B11: NRCoV2-SR01 VHH-Fc (Fc fusion)
chain: EVQLVQSGGGSVQAGGSLRLSCVASGFTFDNYAIGWFRQAPGKEREGVSCISGNGGVTIYADSVKGRFTISRDNAKNLVYLQMNSLKPEDTAVYYCAATGIRSTWSVYGCSRLAGPYDYWGQGTQVTVSS
notes: bivalent
B12: NRCoV2-MRed07 VHH-Fc (Fc fusion)
chain: EVQLVESGGGLVQPGGSLTLSCAASGSIGPFNTMGWYRQAPGNQREPAAIITRGGVTNYADSVKGRFTISRDNAKNAVYLQMDSLKPDDTAVYYCYANYGWAIPYWGNGTQVTVSS
notes: bivalent
B13: NRCoV2-SR13 VHH-Fc (Fc fusion)
chain: EVQLVESGGGLVTTGGSLRLSCATSGSRFGSKHMAWYRQAPGKQRDLVAAISSGGSTHYGSSVKGRFTISRDNAKSTVYLQMNSLNPEDTAVFYCNMGGWDYRSNTYIPGSRSDYWGQGTQVTVSS
notes: bivalent
B14: NRCoV2-MRed06 VHH-Fc (Fc fusion)
chain: EVQLVESGGGLVQAGGSLRLSCAASGFTLAYYAIGWFRQAPGKEREGVSCISSSDGSAHYADSVKGRFTISRDNAKNTVSLQMNSLKPEDTAVYYCATDSFSSCSDYESGMDFWGKGTQVTVSS
notes: bivalent
B15: NRCoV2-SR03 VHH-Fc (Fc fusion)
chain: B4 chain
notes: bivalent
B16: NRCoV2-SR02 VHH-Fc (Fc fusion)
chain: EVQLVDSGGGLVQAGGSLRLSCTASEFTLNYYSIGWFRQSPGKEREGVSCIRYSGGGIDYADSVKGRFTISRDNAKNTVYLTMNSLKPEDTAVYYCAADRLYSRACPTAGGRNYWGQGTQVTVSS
notes: bivalent
B17: NRCoV2-MRed03 VHH-Fc (Fc fusion)
chain: EVQLVESGGGLVQPGGSLRLSCAAIGFTLDYYAIGWFRQAPGKEREGVSCISSSDGSTYYADSVKGRFTISRDNAKNTVYLQMNSLKPEDTAVYYCATDAFATCDSWYAQIAQYDFRGQGTQVTVSS
notes: bivalent
B18: NRCoV2-SR04 VHH-Fc (Fc fusion)
chain: B6 chain
notes: bivalent
B19: NRCoV2-07 VHH-Fc (Fc fusion)
chain: QVQLVQSGGGLVQPGGSLRLSCAASGVTLDYYAIGWFRQAPGKEREAVSCISSNGRRNHYVASVRGRFTISRDNAKSTVYLQMNSLKPEDTAVYYCAAVQDVHGDNYYCTSPNEYNVWGQGTQVTVSS
notes: bivalent VHH-Fc
B20: NRCoV2-20 VHH-Fc (Fc fusion)
chain: EVQLQQSGGGLVQPGGSLRLSCAASGRTFSNYVVGWFRQAPQAPGKDHEFVAVISGSDTETYYADSVKGRFTISRDNAKNTVYLQMNSLKPEDTAVYYCAADRGMSYYYTRATEYYYWGQGTQVTVSS
notes: bivalent VHH-Fc

The target of one test is T1, SARS-CoV spike (S) (SARS-CoV, UniProt P59594 14-1195). The experiment in a line: ELISA. (ELISA stands for enzyme-linked immunosorbent assay.)
As for B1, the binding result is “no binding (tested: 13 nM)”.

Turning to B2, the binding result is “no binding (tested: 13 nM)”.

Take B3: the binding result is given as “no binding (tested: 13 nM)”.

Take B4: the binding result was “no binding (tested: 13 nM)”.

Turning to B5, the binding result is listed as “no binding (tested: 13 nM)”.

Consider B6, for which the binding result was “no binding (tested: 13 nM)”.

As for B7, the binding result was “no binding (tested: 13 nM)”.

A further test concerns the target T2, SARS-CoV-2 S2 (aa686-1208) (Wuhan) (SARS-CoV-2 Wuhan, UniProt P0DTC2 686-1208).
T2 construct: NRC; FLAG, 6xHis tags
The experiment in a line: ELISA.
Turning to B2, the binding result is listed as “no binding (tested: 13 nM)”.

As for B4, the binding result is recorded as “no binding (tested: 13 nM)”.

Turning to B6, the binding result is “no binding (tested: 13 nM)”.

For the molecule B7, the binding result is listed as “no binding (tested: 13 nM)”.

For the next test, the target named is T3, SARS-CoV-2 S1 (aa16-685) (Wuhan) (SARS-CoV-2 Wuhan, UniProt P0DTC2 16-685).
T3 construct: NRC; FLAG, 6xHis tags
The experiment in a line: ELISA.
Consider B8, for which the binding result is given as “no binding (tested: 13 nM)”.

Consider B9, for which the binding result was “no binding (tested: 13 nM)”.

For the molecule B3, the binding result was “no binding (tested: 13 nM)”.

The target in a further test is T1, SARS-CoV spike (S). The experiment in a line: ELISA. The source holds these as a separate data set.
On to B9, for which the binding result is reported as “no binding (tested: 13 nM)”.

The target of another test is T4, SARS-CoV-2 S1-NTD (aa16-305) (SARS-CoV-2 Wuhan, UniProt P0DTC2 16-305). The experiment in a line: ELISA.
As for B8, the binding result was “no binding (tested: 13 nM)”.

Take B9: the binding result is “no binding (tested: 13 nM)”.

For B2, the binding result is “no binding (tested: 13 nM)”.

In the case of B3, the binding result was “no binding (tested: 13 nM)”.

In the case of B7, the binding result is recorded as “no binding (tested: 13 nM)”.

In another test the target is T5, SARS-CoV-2 spike trimer S (Wuhan, SmT1) (SARS-CoV-2 Wuhan).
T5 construct: extracellular domain
The experiment in a line: ELISA, coated antigen, apparent EC50.
B10: the EC50 (as a rule, the concentration that produces a half-maximal response) was determined as 0.59 nM.

Take B11: the EC50 was found to be 0.13 nM.

As to B12, the EC50 came out at 1.2 nM.

Regarding B13, the 50% effective concentration (EC50) was 0.43 nM.

As to B14, the EC50 came to 0.4 nM.

Regarding B15, the EC50 stood at 0.16 nM.

On to B16, for which the EC50 came to 0.11 nM.

As to B17, the EC50 turned out to be 0.2 nM.

For the molecule B18, the EC50 is 0.2 nM.

The target of the next test is T3, SARS-CoV-2 S1 (aa16-685) (Wuhan). The experiment in a line: ELISA, coated antigen, apparent EC50.
As for B10, the EC50 came to 2.7 nM.

Consider B11, for which the EC50 came out at 0.23 nM.

Regarding B12, the 50% effective concentration (EC50) is 1.5 nM.

In the case of B13, the EC50 is 0.43 nM.

Regarding B14, the EC50 stood at 0.59 nM.

For the molecule B15, the EC50 worked out at 0.2 nM.

For B16, the half-maximal effective concentration (EC50) worked out at 0.13 nM.

For the molecule B17, the EC50 was determined as 0.48 nM.

Regarding B18, the EC50 turned out to be 0.25 nM.

The next test has as its target T4, SARS-CoV-2 S1-NTD (aa16-305). The experiment in a line: ELISA, coated antigen, apparent EC50.
Turning to B10, the EC50 amounted to 0.36 nM.

On to B11, for which the EC50 is 0.19 nM.

Turning to B12, the EC50 came out at 0.8 nM.

For B13, the EC50 was 0.23 nM.

For B14, the EC50 amounted to 0.4 nM.

Take B15: the EC50 was 0.17 nM.

For B16, the EC50 turned out to be 0.34 nM.

As to B17, the EC50 came out at 0.7 nM.

Consider B18, for which the EC50 stood at 0.17 nM.

For another test, the target named is T6, SARS-CoV-2 S on CHO-S cells (SARS-CoV-2, UniProt P0DTC2 14-1273).
T6 construct: whole, on cells
The experiment in a line: flow cytometry, CHO-S cells.
Molecule B1 had a Bmax of 6660 and an EC50 of 6.5 nM.

B8 came in with a Bmax of 6900 and an EC50 of 0.3 nM.

For the molecule B9, the Bmax amounted to 5320 and the response was half-maximal at 0.2 nM (EC50).

In the case of B2, the Bmax came out at 21100 and a half-maximal response (EC50) required 0.8 nM.

The molecule B3 gave a Bmax of 3250 and an EC50 of 2.9 nM.

B4 came in with a Bmax of 19900 and an EC50 of 7.1 nM.

The molecule B6 registered a Bmax of 10100 and an EC50 of 8.2 nM.

The molecule B7 returned a Bmax of 19000 and an EC50 of 0.4 nM.

For another test, the target named is Human SARS-CoV S (SARS-CoV, UniProt P59594 14-1190). The experiment in a line: flow cytometry SVNA: VHH-Fc inhibits S binding to ACE2 on Vero E6 cells. A general note: In flow cytometry, cells or beads pass a laser one at a time.
Take B19: the IC50 (usually the concentration needed to halve the response being measured) worked out at 4.2 nM.

Molecule B20 came in with a concentration for half-maximal inhibition (IC50) of 10.3 nM.

In a further test the target is Human SARS-CoV-2_Wuhan S (SmT1) (SARS-CoV-2 (Wuhan), UniProt P0DTC2 14-1208). Described as above.
B19 returned an IC50 of 4.7 nM. This counts as single-digit nanomolar.

The molecule B20 gave an IC50 of 6.5 nM. This IC50 and that of the molecule before are within 1.5-fold of each other.
